Assay results taken from US20240287172A1 (SCIRHOM, published 2024).
Residue numbers refer to the chain shown, from its start.

B1: antibody 48 (antibody, V domains shown)
VH: QVQLQQSGTELVRPGTSVKVSCKASGYAFTNYLIEWVKQRPGQGLEWIGVINPGSGFTKYNEKFKGKATLTADKSSSTVYMHLSSLTSEDSAVYFCARGLYRAMDYWGQGTSVTVSS
VL: DIQMTQSPASQSASLGESVTITCLASQTIATWLAWYQQKPGKSPQLLIYGATTLADGVPSRFSGGGSGTKFSFKISSLQAEDFVSYYCQQLYSTPYTFGGGTKLEIK
notes: mouse IgG, kappa light chain; also called clone #48; purified antibody 48
B2: antibody 50 (antibody, V domains shown)
VH: B1 VH with T9A, T16A, T30S, V79A, H82Q
VL: B1 VL with A30G, G50A, T52A, T53S, S85N, L91I
notes: mouse IgG, kappa light chain; also called clone #50; purified antibody 50

Target: T1, hiR2-FL-L589P-T7 (human, UniProt Q6PJF5 1-856)
T1 sequence: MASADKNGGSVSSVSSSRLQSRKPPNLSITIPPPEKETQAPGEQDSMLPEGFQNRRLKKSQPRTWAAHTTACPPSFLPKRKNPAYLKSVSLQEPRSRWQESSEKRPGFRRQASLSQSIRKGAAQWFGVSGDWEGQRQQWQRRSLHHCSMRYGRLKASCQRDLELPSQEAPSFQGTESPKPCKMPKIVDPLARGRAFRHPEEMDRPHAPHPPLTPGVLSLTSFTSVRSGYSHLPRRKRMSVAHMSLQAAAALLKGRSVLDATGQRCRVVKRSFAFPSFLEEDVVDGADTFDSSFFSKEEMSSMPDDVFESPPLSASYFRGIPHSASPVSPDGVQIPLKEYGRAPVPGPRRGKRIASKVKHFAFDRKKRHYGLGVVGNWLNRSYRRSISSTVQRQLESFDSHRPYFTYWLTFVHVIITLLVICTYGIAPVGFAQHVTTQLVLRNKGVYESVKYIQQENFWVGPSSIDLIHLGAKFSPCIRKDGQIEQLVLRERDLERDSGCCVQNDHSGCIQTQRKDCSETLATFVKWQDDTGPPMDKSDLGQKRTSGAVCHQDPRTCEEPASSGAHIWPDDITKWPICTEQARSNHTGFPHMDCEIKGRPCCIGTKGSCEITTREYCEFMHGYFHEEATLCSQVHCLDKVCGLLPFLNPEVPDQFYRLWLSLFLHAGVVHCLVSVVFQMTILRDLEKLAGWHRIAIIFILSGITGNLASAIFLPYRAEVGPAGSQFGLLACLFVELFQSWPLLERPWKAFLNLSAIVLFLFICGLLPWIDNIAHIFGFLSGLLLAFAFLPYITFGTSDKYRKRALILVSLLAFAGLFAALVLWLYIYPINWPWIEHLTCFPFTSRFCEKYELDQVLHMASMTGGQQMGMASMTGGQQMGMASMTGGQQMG
Assay: FACS, MEF-DKO cells, 3 µg/ml
Method in brief: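 Binding read by flow cytometry after a PE goat anti-mouse IgG F(ab′)2 secondary (1:100, on ice, 1 h, dark). Before that, immortalized MEF-DKO lines carrying single-mutant hiR2-FL-T7 constructs were incubated 1 h on ice with 3 μg/ml antibody or FACS buffer alone.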

| Binder | loss of binding vs wild type |
| --- | --- |
| B1 | ≥ 60% |
| B2 | ≥ 95% |
